The chains are these.
B1: h9E3.FN.V1 HC F91Y (antibody, name in Kabat numbering, V domains shown)
VH: EQQLVESGGGLIQPGGSLRLSCAVSGFSLSSNAMSWVRQAPGKGLEWIGIISSSGSTYSASWAKGRFTISKDSSKNTMYLQMNSLRAEDTAVYYCARVGFFVGYGAYDYGIIHRLDLWGQGTLVTVSS
VL: DAQLTQSPSTLSASVGDRVTITCQSSKSIYNNNWLSWYQQKPGKPPKLLIYDASDLASGVPSRFSGSGSGTEFTLTISSLQPDDFATYYCAGGYSGDSDYAFGGGTKVEIK
notes: Framework variant of h9E3.FN.v1 (human IgG1)
B2: h9E3.FN.V1 HC V24A (antibody, human IgG1, name in Kabat numbering, V domains shown)
VH: B1 VH with V24A, Y94F
VL: B1 VL
notes: as for B1
B3: h9E3.FN.V1 HC K71R (antibody, human IgG1, name in Kabat numbering, V domains shown)
VH: B1 VH with K71R, Y94F
VL: B1 VL
notes: as for B1
B4: h9E3.FN.V1 HC S73N (antibody, human IgG1, name in Kabat numbering, V domains shown)
VH: B1 VH with S73N, Y94F
VL: B1 VL
notes: as for B1
B5: h9E3.FN.V1 HC Q2V (antibody, human IgG1, name in Kabat numbering, V domains shown)
VH: B1 VH with Q2V, Y94F
VL: B1 VL
notes: as for B1
B6: h9E3.FN.V1 LC A2I (antibody, human IgG1, name in Kabat numbering, V domains shown)
VH: B1 VH with Y94F
VL: B1 VL with A2I
notes: as for B1
B7: h9E3.FN.V1 HC I48V (antibody, human IgG1, name in Kabat numbering, V domains shown)
VH: B1 VH with I48V, Y94F
VL: B1 VL
notes: as for B1
B8: h9E3.FN.V1 LC P43A (antibody, name in Kabat numbering, V domains shown)
VH: B1 VH with Y94F
VL: B1 VL with P45A
notes: as for B1
B9: h9E3.FN.V1 HC G49S (antibody, human IgG1, name in Kabat numbering, V domains shown)
VH: B1 VH with G49S, Y94F
VL: B1 VL
notes: as for B1
B10: h9E3.FN.V1 HC M78L (antibody, human IgG1, name in Kabat numbering, V domains shown)
VH: B1 VH with M78L, Y94F
VL: B1 VL
notes: as for B1
B11: h9E3.FN.V1 LC L4M (antibody, human IgG1, name in Kabat numbering, V domains shown)
VH: B1 VH with Y94F
VL: B1 VL with L4M
notes: as for B1
B12: h10C3.V1 LC Q2I (antibody, human IgG1, name in Kabat numbering, V domains shown)
VH: EQQLVESGGGLVQPGGSLRLSCAASGFSLSGYTMGWVRQAPGKGLEYIGVISSGGTTYYTNWAKGRFTISKDSSKNTVYLQMGSLRAEDMAVYFCARVAFTAYGGGGFPTLHRLDLWGQGTLVTVSS
VL: DIVLTQSPDSLAVSLGERATINCQSSESVYNNDYLAWYQQKPGQPPKLLIYSASTLASGVPDRFSGSGSGTDFTLTISSLQAEDVAVYYCAGGYLGNNVFGGGTKVEIK
notes: Framework variant of h10C3.v1 (human IgG1)
B13: Rbt22C4 (antibody, V domains shown)
VH: QSVEESGGRLVTPGTPLTLTCTVSGFSLSTYSMSWVRQAPGKGLEWLGIVSVAIDPVYATWARGRFTISRTSTTVNLKITSPTTEDTATYFCVRVAFSTNGIPHRLDLWGQGTLVTVSS
VL: AQVLTQTASSVSAAVGGTVTISCQSSPSVYNHNWLSWYQQKPGQPPKLLIYEASKLASGVPSRFSGSGSGTQFTLTISDVQCDEAATYYCAGGFSSGSDSFAFGGGTEVVVT
notes: Recombinant rabbit monoclonal antibody, Expi293, protein A purified
B14: Rbt13D8 (antibody, V domains shown)
VH: QSLEESGGRLVTPGTPLTLTCTVSGFSFSSYSMGWVRQAPGKGPEYIGVISASGTTYYASWVNGRFTISKTSTTMDLKMTSPTAADTATYFCARAAFTAYNRGSCVIHRLDLWGQGTLVTVSS
VL: AQVLTQTASSVSAAVGGTVTINCQASQSVYDSKWLAWYQQKPGQPPKLLIYSASTLASGVPSRFKGSGSGTQFTLTISDLECDDAATYYCAGAYTDNIVFGGGTEVVVK
notes: as for B13
B15: Rbt8F4 (antibody, V domains shown)
VH: QSVQESGGRLVTPGTPLTLTCTVSGFSLINYPMSWVRQAPGKGLEWIGVISSTGGTNYASWAKGRFTISKTSTTVDLKITSPTTEDTATYFCARVDFLVYLGGAYIIWGLDLWGQGTLVTVSS
VL: AAVLTQTPSPVSAAVGGTVTINCQSSPNIYSNYLSWFQQKPGQPPKILIYGASTLASGVPSRFKGSGSGTQFTLTISDVQCDDAATYYCAGGYSDSSEAYAFGGGTEVVVK
notes: as for B13

Substitutions are numbered along the chain they refer to.

The record followed here is patent US20220135701A1 (Genentech, published 2022).

The first experiment has as its target T1, human MerTK (human, UniProt Q12866 26-499).
T1 construct: also called HuMER
T1 sequence: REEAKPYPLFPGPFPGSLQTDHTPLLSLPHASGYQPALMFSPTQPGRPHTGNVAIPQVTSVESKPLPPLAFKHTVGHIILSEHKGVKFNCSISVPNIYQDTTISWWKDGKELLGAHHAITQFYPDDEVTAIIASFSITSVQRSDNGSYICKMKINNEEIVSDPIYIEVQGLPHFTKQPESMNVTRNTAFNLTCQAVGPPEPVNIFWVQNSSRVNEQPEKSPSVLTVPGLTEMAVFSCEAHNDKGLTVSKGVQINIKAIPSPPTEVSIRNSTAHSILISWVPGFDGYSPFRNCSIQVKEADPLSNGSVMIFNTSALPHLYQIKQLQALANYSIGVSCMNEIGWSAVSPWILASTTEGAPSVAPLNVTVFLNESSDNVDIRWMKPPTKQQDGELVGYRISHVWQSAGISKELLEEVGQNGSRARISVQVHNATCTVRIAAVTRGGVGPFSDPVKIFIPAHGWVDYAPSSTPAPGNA
The experiment in a line: SPR BIAcore T200, Ab captured, 37C. The protocol:
Each humanized mutation variant was subject to BIAcore analysis to determine the important rabbit residues for binding and stability. Binding affinity determinations were obtained using Surface Plasmon Resonance (SRP) measurements from a BIAcore™-T200 instrument. Briefly, each humanized mutation variant antibody was captured to achieve approximately 100 RU (Response Units). Then, 3-fold serial dilutions of human MerTK (0.4 nM to 100 nM) diluted in HBS-EP buffer (0.01M HEPES pH 7.4, 0.15M NaCl, 3 mM EDTA and 0.05% v/v surfactant P20) was injected into the BIAcore™-T200 instrument at 37° C. with a flow rate of 30 μl/min. Association rates (kₒₙ) and dissociation rates (koff) were calculated using a simple one-to-one Langmuir binding model (BIAcore T200 evaluation software version 2.0). The equilibrium dissociation constant (KD) was calculated as the ratio koff/kₒₙ.
Molecule B1 showed a Kd of 11.5 nM.

Regarding B2, the Kd came to 8.7 nM.

In the case of B3, the Kd was 41.3 nM.

Consider B4, for which binding was characterised by a dissociation constant (Kd) of 12.3 nM.

On to B5, for which the Kd came out at 10.2 nM.

As to B6, the Kd turned out to be 10.7 nM.

Turning to B7, the affinity, expressed as Kd, was 10.2 nM.

B8 registered a Kd of 15 nM.

The molecule B9 had a Kd of 5.6 nM.

Take B10: binding was characterised by a dissociation constant (Kd) of 12.5 nM.

Turning to B11, the Kd came to 7.5 nM.

On to B12, for which binding was characterised by a dissociation constant (Kd) of 17.1 nM.

In the next experiment the target is T1, human MerTK. The experiment in a line: SPR BIAcore T200, Ab captured, 25C. The protocol: (§1) All binding affinity determinations were obtained using Surface Plasmon Resonance (SPR) measurements from a BIAcore™-T200 instrument. Briefly, each rabbit or humanized antibody was captured to achieve approximately 100 RU (Response Units). Then, 3-fold serial dilutions of MerTK from various species (0.4 nM to 100 nM) diluted in HBS-EP buffer (0.01M HEPES pH 7.4, 0.15M NaCl, 3 mM EDTA and 0.05% v/v surfactant P20) was injected into the BIAcore™-T200 instrument at 25° C. or 37° C. with a flow rate of 30 μl/min. Association rates (kₒₙ) and dissociation rates (koff) were calculated using a simple one-to-one Langmuir binding model (BIAcore T200 evaluation software version 2.0). The equilibrium dissociation constant (KD) was calculated as the ratio koff/kₒₙ.
Take B13: the Kd turned out to be 94 nM.

Regarding B14, the Kd was found to be 4.3 nM.

In the case of B15, the Kd was found to be 44 nM.

The target in another experiment is T2, cynomolgus monkey MerTK (cynomolgus monkey, UniProt A0A2K5V1H9 32-505).
T2 construct: Soluble analyte in SPR; also called Cyno MerTK
T2 sequence: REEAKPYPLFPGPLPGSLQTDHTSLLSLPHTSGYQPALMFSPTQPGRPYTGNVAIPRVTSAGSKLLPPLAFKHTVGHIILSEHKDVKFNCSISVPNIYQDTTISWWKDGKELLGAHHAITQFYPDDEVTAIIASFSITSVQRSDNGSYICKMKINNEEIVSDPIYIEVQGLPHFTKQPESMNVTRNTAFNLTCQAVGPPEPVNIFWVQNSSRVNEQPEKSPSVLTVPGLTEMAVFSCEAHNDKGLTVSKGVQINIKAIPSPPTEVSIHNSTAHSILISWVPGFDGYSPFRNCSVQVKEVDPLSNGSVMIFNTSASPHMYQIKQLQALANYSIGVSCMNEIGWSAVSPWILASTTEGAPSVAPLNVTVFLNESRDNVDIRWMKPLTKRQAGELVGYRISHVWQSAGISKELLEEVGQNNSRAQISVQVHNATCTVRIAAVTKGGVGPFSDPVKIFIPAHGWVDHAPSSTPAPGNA
Briefly: SPR BIAcore T200, Ab captured, 25C. As for the experimental part: as §1
In general terms: In SPR one partner is held on a chip, and binding of the other changes the refractive index at the surface.
B13 returned a Kd of 82.2 nM.

As to B14, the Kd is 3.8 nM.

B15 came in with a Kd of 14.7 nM.

For a further experiment, the target named is T3, mouse MerTK (mouse, UniProt Q60805 23-496).
T3 construct: also called MuMER
T3 sequence (looked up): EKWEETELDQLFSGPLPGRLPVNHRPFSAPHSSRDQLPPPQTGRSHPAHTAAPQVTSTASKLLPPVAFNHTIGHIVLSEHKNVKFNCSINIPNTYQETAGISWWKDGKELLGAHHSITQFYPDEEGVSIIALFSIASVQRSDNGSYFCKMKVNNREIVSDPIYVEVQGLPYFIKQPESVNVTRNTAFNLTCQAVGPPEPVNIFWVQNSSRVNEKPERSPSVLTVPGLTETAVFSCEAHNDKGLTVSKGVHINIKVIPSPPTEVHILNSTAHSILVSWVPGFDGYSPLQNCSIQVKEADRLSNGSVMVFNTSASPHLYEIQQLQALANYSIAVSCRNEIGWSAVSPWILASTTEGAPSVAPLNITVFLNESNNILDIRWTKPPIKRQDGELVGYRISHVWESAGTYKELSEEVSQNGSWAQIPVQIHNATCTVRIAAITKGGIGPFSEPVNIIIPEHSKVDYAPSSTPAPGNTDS
Briefly: SPR BIAcore T200, Ab captured, 25C. The protocol: as §1
Molecule B13 gave a Kd of 2.2 nM.

With B14, binding was characterised by a dissociation constant (Kd) of 1.2 nM.

As to B15, the affinity, expressed as Kd, was 2.3 nM.

In a further experiment the target is T4, HuMER (R26-A499) (human, UniProt Q12866 26-499).
T4 construct: Extracellular domain with both Ig-like and both fibronectin-like domains; also called human MerTK extracellular domain
T4 sequence: T1 sequence
The experiment in a line: SPR BIAcore T200, Ab captured, 25C. The protocol:
(§2) Binding affinity determinations were obtained using Surface Plasmon Resonance (SRP) measurements from a BIAcore™-T200 instrument. Briefly, each rabbit antibody was captured to achieve approximately 100 RU (Response Units). Then, 3-fold serial dilutions of the various MerTK domains (0.4 nM to 100 nM) diluted in HBS-EP buffer (0.01M HEPES pH 7.4, 0.15M NaCl, 3 mM EDTA and 0.05% v/v surfactant P20) was injected into the BIAcore™-T200 instrument at 25° C. or 37° C. with a flow rate of 30 μl/min. Association rates (kₒₙ) and dissociation rates (koff) were calculated using a simple one-to-one Langmuir binding model (BIAcore T200 evaluation software version 2.0). The equilibrium dissociation constant (KD) was calculated as the ratio koff/kₒₙ.
(§3) Antibody epitope determination was assessed by BIAcore analysis for rabbit antibodies binding against both the human and mouse MerTK extracellular domain (HuMER R26-A499 and MuMER E23-S496), Ig1&2 domain, Ig1-only domain, and Ig2-only domain (TABLE 18). Human MerTK and its domains are shown in light gray, while mouse MerTK and its domains are shown in dark gray.
With B13, the dissociation constant (Kd) was found to be 94 nM.

The molecule B14 yielded a Kd of 4.3 nM.

With B15, binding was characterised by a dissociation constant (Kd) of 44 nM.

The target in a further experiment is T5, MuMER (E23-S496) (mouse, UniProt Q60805 23-496).
T5 construct: range 23-496; also called mouse MerTK extracellular domain
T5 sequence (looked up): T3 sequence (looked up)
Briefly: SPR BIAcore T200, Ab captured, 25C. The protocol: as §2, §3
The molecule B13 returned a Kd of 2.2 nM.

B14: the affinity, expressed as Kd, was 1.2 nM.

Molecule B15 had a Kd of 2.3 nM.

Usually Kd stands for the free concentration of one partner at which half of the binding sites on the other are occupied at equilibrium, for simple one-to-one binding.
